Measurements as given in publication PMC3485628, “Perlecan domain 1 recombinant proteoglycan augments BMP-2 activity and osteogenesis” (BMC Biotechnology, 2012).

Target: T1, recombinant human perlecan domain 1 proteoglycan rhPln.247 (human, UniProt P98160 22-247, heparan sulfate and chondroitin sulfate glycosaminoglycan chains (CS:HS ratio of approximately 2:1); attachment residues not given)
T1 construct: signal peptide in the construct; The secreted product has probably lost the signal peptide; also called rhPln.D1; rPlnD1; source: HEK 293 cells, adenoviral expression system, purified
Test: ELISA; rhPln.247 coated directly on polystyrene microtiter wells overnight at 4°C in PBS/N3 at about 1-2 ug/ml; rhBMP-2 or rhBMP-7 serially diluted; retained BMP detected with biotinylated anti-BMP antibodies; background without rhPln.247 subtracted; apparent Kd
Conditions: both partners purified

T1 sequence (P98160 22-247): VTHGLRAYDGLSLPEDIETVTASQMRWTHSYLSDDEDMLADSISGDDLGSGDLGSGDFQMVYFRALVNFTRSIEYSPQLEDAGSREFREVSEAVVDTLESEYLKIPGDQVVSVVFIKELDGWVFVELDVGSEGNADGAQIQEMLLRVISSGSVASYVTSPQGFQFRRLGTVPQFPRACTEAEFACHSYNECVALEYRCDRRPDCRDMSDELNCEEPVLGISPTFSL

B1: recombinant human bone morphogenetic protein-7 (ligand)
chain: STGSKQRSQNRSKTPKNQEALRMANVAENSSSDQRQACKKHELYVSFRDLGWQDWIIAPEGYAAYYCEGECAFPLNSYMNATNHAIVQTLVHFINPETVPKPCCAPTQLNAISVLYFDDSSNVILKKYRNMVVRACGCH
notes: bone morphogenetic protein 7, human, recombinant; also called rhBMP-7; rBMP-7; source: bought: R&D Systems
- fold by which rhBMP-2 binds more tightly than rhBMP-7: ~10 fold
